Assay [1] deals with extracellular region of human F158 FcγRIIIa with C-terminal 6x His-tag and GST-tag (human) (UniProt P08637). As to the kind of experiment: SPR (Table 3, not reproduced); receptor immobilized, antibody flowed.
Assay [2] addresses extracellular region of human V158 FcγRIIIa with C-terminal 6x His-tag and GST-tag (human) (UniProt P08637). Described as above.
In assay [3] the target is human FcγRIIIa on PBMCs expressing heterozygous V158/F158 FcγRIIIa (human) (UniProt P08637). Description: cell-based or functional assay.
human FcγRIIIa on PBMCs expressing heterozygous V158/F158 FcγRIIIa (human), sequence (P08637 17-254): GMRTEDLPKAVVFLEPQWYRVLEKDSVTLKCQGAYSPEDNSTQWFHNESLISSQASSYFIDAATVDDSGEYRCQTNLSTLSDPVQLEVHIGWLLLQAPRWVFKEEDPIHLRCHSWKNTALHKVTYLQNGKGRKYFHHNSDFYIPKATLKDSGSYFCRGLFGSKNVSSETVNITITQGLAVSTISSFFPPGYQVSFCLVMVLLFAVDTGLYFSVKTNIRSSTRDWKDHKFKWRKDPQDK
For assay [4], the target named is extracellular region of human F158 FcγRIIIa with C-terminal 6x His-tag and GST-tag (human) (UniProt P08637). Description: SPR; receptor immobilized, antibody flowed.
Assay [5] deals with T1, extracellular region of human FcγRIIIa, allotype not stated where cited (His/GST-tagged) (human) (UniProt P08637). Description: AlphaScreen competition, Figure 15. In general terms: In Alpha technology, singlet oxygen from a donor bead excites a nearby acceptor bead.
T1 sequence (P08637 17-208): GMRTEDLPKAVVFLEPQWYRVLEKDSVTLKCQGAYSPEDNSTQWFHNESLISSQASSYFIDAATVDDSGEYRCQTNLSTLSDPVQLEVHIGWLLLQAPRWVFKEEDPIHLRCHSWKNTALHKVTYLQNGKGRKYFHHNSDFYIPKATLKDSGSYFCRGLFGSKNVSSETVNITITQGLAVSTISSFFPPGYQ
Assay [6] has as its target T1, extracellular region of human FcγRIIIa, allotype not given (His/GST-tagged) (human). As to the kind of experiment: AlphaScreen, Figure 15; fold vs WT for FcγRIIIa divided by fold vs WT for FcγRIIb.

extracellular region of human F158 FcγRIIIa with C-terminal 6x His-tag and GST-tag (human), sequence (P08637 17-208): as above
extracellular region of human V158 FcγRIIIa with C-terminal 6x His-tag and GST-tag (human), sequence (P08637 17-208 F176V): as the sequence (P08637 17-208) above, with F160V counted along it

Regarding “S298A/E333A/K334A alemtuzumab (antibody)”, the fold improvement over WT in assay [1] was 4.7 fold; in assay [2], 1.7 fold.

In general, Kd refers to the constant that tells how readily two partners part at equilibrium. A low value points to tighter binding. V264I/I332E alemtuzumab (antibody): the ADCC log(EC50), DoHH-2 target cells in assay [3] was 0.6. The fold enhancement in ADCC over WT alemtuzumab in assay [3] was 2.5 fold. Moreover, the Kd in assay [4] came out at 52 nM. Also, the fold improvement over WT amounted to 14 fold in assay [1] and 4 fold in assay [2].

The substance I332E alemtuzumab (antibody) returned a fold improvement over WT in assay [1] of 10.1 fold.

On to “S239D/I332E Fc variant antibody (Figure 15; antibody context not stated)”, for which, in assay [5], the FcγRIIIa-fold (fold affinity relative to WT) was 192 fold.

As to “S239D/A330L/I332E Fc variant antibody (Figure 15; antibody context not stated)”, in assay [6], the FcγRIIIa-fold:FcγRIIb-fold ratio turned out to be 18. Also, the FcγRIIIa-fold (fold affinity relative to WT) in assay [5] was 139 fold.

On to S239D/I332E alemtuzumab (antibody), for which, in assay [3], the ADCC log(EC50), DoHH-2 target cells worked out at 0.49 and the fold enhancement in ADCC over WT alemtuzumab was determined as 3.3 fold.
